Experimental data as given in article PMC8632240.

Biological target: human angiotensin-converting enzyme 2 extracellular domain fused to mouse Fc (hACE2-ECD-mFc) (human) (UniProt Q9BYF1)
Experiment: ELISA

human angiotensin-converting enzyme 2 extracellular domain fused to mouse Fc (hACE2-ECD-mFc) (human), sequence (Q9BYF1 19-617): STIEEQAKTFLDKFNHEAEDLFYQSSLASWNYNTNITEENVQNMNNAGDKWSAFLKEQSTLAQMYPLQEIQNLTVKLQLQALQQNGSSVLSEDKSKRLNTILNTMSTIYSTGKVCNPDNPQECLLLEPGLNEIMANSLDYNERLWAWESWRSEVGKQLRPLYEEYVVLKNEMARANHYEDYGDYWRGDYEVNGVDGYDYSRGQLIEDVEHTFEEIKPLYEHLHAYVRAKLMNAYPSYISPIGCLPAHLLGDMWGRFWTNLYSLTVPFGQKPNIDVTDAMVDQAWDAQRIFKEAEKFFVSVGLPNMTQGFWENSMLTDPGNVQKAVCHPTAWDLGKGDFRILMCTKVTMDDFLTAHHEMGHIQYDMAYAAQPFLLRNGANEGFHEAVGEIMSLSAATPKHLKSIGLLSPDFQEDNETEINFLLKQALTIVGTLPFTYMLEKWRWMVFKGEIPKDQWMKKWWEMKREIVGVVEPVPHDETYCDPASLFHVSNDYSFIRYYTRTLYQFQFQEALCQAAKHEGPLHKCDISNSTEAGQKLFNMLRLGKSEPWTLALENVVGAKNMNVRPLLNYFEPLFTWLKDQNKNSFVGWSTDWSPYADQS

**Q.** How did the IC50 turn out when “SARS-CoV-2 S-RBD reference (spike receptor-binding domain, reference type) (from UniProt P0DTC2 319-541) (domain or fragment)” was run?
**A.** 123 nM
